Experimental findings from paper PMC4866497 are described below.

Like-named read-outs stand apart in the source and are kept apart here.

The test system of data set [1] is MetMab full heavy chain with T366V K409V, with MetMab light chain. Nature of the data set: SEC. (In gel filtration, larger molecules generally elute earlier.)
The test system is the same in data set [2]. Nature of the data set: SEC. The source holds these as a separate data set.
The test system of data set [3] is MetMab full heavy chain with K360D D399M Y407A, with MetMab light chain. Nature of the data set: SEC.
For data set [4] the test system is unchanged. Nature of the data set: SEC. This is another data set of the same source.
Data set [5] has as its system MetMab full heavy chain with E345R Q347R T366V K409V, with MetMab light chain. Nature of the data set: SEC.
For data set [6] the test system is unchanged. Nature of the data set: SEC. The source holds these as a separate data set.
Data set [7] has as its system MetMab full heavy chain with T350V T366L K392L T394W, with MetMab light chain. Nature of the data set: SEC.
Data set [8] shares this test system. Nature of the data set: SEC. The source holds these as a separate data set.
In data set [9] the test system is MetMab full heavy chain with T350V L351Y F405A Y407V, with MetMab light chain. Nature of the data set: SEC.
The test system is the same in data set [10]. Nature of the data set: SEC. This is another data set of the same source.
For data set [11], the system named is MetMab full heavy chain with D399M Y407A, with MetMab light chain. Nature of the data set: SEC.
Data set [12] shares this test system. Nature of the data set: SEC. The source holds these as a separate data set.
The target of a further data set is IgG1 Fc with T366V K409V. Nature of the data set: SEC.
Data set [13] relates to MetMab full heavy chain with T366S L358V Y407A, with MetMab light chain. Nature of the data set: SEC.
Data set [14] has the same test system. Nature of the data set: SEC. The source holds these as a separate data set.
For data set [15], the system named is EGFR domain 3 - Fc with T350V T366L K392L T394W. Nature of the data set: FRET or BRET.
Data set [16] has as its system EGFR domain 3 - Fc with D399M Y407A. Nature of the data set: FRET or BRET. Background: Bioluminescence resonance energy transfer reports proximity on the nanometre scale.

For IgG1 Fc with D399M Y407A, the results for the % AB heterodimer in data set [1] and in data set [2] were 26.9% and 88.6%, respectively.

Regarding IgG1 Fc with E345R Q347R T366V K409V, the % AB heterodimer in data set [3] amounted to 46.2%; in data set [4], 92.9%.

IgG1 Fc with K360D D399M Y407A: the % AB heterodimer in data set [5] is 32.5%; in [6] it was 93.3%.

For the substance IgG1 Fc with T350V L351Y F405A Y407V, the results for the % AB heterodimer in [7] and in [8] were 18.3% and 94.3%, respectively.

As to IgG1 Fc with T350V T366L K392L T394W, the % AB heterodimer in data set [9] turned out to be 25.6%; in data set [10] it was 87.6%.

Consider IgG1 Fc with T366V K409V, for which the % AB heterodimer in data set [11] stood at 42.3%; in [12], 89.9%.

“IgG1 Fc with T366V K409V (domain or fragment)” showed a % BB homodimer (co-expressed with m8) in the data set with IgG1 Fc with T366V K409V of 8.2%.

For IgG1 Fc with T366W, the results for the % AB heterodimer in [13] and in [14] were 33.1% and 94.1%, respectively.

Turning to “VEGFR1 domain 3 - Fc with T350V L351Y F405A Y407V”, in [15], the % AB heterodimer was found to be 94.8%.

VEGFR1 domain 3 - Fc with T366V K409V: in data set [16], the % AB heterodimer was 89%.
